4 molecules from patent US20240024520A1 (UCB, published 2024) can be followed below.

The target in one experiment is T1, human serum albumin (human, UniProt P02768 25-609).
T1 construct: also called HSA
Kind of experiment: monoclonal phage ELISA. (In general: ELISA stands for enzyme-linked immunosorbent assay.)

Experiment [1] addresses T2, human complement component C5 (human, UniProt P01031 19-673; P01031 678-1676).
T2 construct: mature; Mature C5 is a disulphide-linked beta and alpha chain cut from one precursor; Terbium-labelled in the FRET assays, biotinylated in part of the phage ELISA; also called human C5; C5-Tb
Kind of experiment: SPR (Biacore), C5. (In general: Surface plasmon resonance follows binding to a sensor surface in real time, without labels.)

The target of experiment [2] is T3, human complement component C3 (human, UniProt P01024 23-667; P01024 672-1663).
T3 construct: also called biotinylated C3
Kind of experiment: SPR (Biacore), C3, mean of n=3.

The target in experiment [3] is T3, human complement component C3. Kind of experiment: cell-based or functional assay.
The target is the same in experiment [4]. Kind of experiment: cell-based or functional assay. The source holds these as a separate data set.
In experiment [5] the target is T2, human complement component C5. Kind of experiment: cell-based or functional assay.
The target is the same in experiment [6]. Kind of experiment: cell-based or functional assay. The source holds these as a separate data set.
Experiment [7] shares this target. Kind of experiment: cell-based or functional assay. This is another data set of the same source.
Experiment [8] has the same target. Kind of experiment: SPR single-cycle kinetics.
The target in a further experiment is T4, mouse C5 (mouse, UniProt P06684 19-674; P06684 679-1680).
T4 construct: mature; also called mouse C5 protein
Kind of experiment: SPR single-cycle kinetics.

Another experiment concerns the target T5, ovalbumin (UniProt P01012 2-386).
T5 sequence (looked up): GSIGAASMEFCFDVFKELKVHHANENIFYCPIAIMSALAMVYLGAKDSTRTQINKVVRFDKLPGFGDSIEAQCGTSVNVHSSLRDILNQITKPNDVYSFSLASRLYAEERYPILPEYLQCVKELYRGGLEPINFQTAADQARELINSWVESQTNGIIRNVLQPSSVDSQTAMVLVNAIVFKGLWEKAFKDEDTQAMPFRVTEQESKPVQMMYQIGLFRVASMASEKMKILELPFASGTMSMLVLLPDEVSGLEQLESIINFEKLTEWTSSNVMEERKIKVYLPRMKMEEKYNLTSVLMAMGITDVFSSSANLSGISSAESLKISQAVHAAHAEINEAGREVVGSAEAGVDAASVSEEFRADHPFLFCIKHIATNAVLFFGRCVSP
Kind of experiment: counter screen. A general note: Counterscreens check selectivity or assay interference.

Experiment [9] addresses T3, human complement component C3. Kind of experiment: counter screen.
The target of experiment [10] is T2, human complement component C5. Kind of experiment: cell-based or functional assay. The source holds these as a separate data set.
For experiment [11] the target is unchanged.
For experiment [12] the target is unchanged. Kind of experiment: cell-based or functional assay. The source holds these as a separate data set.
Experiment [13] has the same target. This is another data set of the same source.
Another experiment concerns the target T6, rat C5 (Rattus norvegicus (rat), UniProt P08650 19-1681, limits assumed).
T6 construct: also called C5 protein from Rattus norvegicus (rat)
Kind of experiment: SPR multi-cycle kinetics, rat C5 immobilised.

Experiment [14] concerns the target T2, human complement component C5. Kind of experiment: cell-based or functional assay. This is another data set of the same source.
For experiment [15] the target is unchanged. Kind of experiment: cell-based or functional assay. The source holds these as a separate data set.
Experiment [16] shares this target. Kind of experiment: SPR multi-cycle kinetics, human C5 immobilised, mean of n=3.
For experiment [17] the target is unchanged. Kind of experiment: cell-based or functional assay. This is another data set of the same source.

Values joined by “and” are separate entries in the source; they are usually repeats but may differ in a detail not shown here. Equal entries are not always repeated. Where two headings read alike, the source gives them in different places.

T3 sequence (P01024 23-667 limits assumed, chain 1 of 2): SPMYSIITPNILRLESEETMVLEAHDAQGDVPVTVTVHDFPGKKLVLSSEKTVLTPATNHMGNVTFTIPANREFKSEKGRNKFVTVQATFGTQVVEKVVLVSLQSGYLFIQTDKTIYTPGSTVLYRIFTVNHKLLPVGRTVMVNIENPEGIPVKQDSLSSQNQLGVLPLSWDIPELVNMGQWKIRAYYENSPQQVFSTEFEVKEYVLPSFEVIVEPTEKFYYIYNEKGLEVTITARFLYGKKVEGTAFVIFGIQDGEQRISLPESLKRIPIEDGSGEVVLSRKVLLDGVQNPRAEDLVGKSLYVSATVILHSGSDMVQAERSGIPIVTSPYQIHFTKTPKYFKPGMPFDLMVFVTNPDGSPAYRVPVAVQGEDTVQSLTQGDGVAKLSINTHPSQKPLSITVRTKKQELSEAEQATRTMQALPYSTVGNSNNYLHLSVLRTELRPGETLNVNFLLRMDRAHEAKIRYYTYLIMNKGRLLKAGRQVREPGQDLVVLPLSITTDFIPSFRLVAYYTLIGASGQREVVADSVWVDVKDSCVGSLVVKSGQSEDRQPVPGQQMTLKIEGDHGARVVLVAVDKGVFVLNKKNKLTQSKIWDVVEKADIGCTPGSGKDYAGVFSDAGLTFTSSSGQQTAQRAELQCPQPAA
T3 sequence (P01024 672-1663 limits assumed, chain 2 of 2): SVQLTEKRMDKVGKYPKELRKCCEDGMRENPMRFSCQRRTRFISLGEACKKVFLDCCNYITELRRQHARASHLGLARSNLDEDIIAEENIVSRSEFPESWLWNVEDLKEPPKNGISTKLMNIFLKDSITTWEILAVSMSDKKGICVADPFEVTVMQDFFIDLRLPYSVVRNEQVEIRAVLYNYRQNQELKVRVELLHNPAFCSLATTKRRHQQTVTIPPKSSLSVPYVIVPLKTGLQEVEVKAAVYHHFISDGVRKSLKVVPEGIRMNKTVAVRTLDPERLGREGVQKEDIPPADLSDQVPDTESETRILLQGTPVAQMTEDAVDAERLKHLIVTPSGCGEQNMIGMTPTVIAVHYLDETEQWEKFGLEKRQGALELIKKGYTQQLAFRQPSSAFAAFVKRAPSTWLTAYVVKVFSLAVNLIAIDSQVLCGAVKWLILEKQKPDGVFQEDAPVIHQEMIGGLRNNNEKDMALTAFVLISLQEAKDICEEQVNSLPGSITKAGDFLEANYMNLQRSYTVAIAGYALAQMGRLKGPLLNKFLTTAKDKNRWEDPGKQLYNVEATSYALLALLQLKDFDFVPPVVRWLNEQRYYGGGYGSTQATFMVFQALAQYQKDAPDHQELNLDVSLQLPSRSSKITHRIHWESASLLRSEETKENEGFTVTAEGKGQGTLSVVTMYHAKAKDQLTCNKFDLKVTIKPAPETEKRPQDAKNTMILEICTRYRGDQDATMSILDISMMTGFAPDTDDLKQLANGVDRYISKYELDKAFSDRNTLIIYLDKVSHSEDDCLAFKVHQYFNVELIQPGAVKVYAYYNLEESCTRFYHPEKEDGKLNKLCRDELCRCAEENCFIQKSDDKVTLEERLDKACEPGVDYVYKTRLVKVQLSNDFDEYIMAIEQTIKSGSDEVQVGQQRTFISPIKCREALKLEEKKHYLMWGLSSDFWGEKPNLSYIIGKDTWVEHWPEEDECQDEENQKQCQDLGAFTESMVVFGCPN
T2 sequence (P01031 19-673 limits assumed, chain 1 of 2): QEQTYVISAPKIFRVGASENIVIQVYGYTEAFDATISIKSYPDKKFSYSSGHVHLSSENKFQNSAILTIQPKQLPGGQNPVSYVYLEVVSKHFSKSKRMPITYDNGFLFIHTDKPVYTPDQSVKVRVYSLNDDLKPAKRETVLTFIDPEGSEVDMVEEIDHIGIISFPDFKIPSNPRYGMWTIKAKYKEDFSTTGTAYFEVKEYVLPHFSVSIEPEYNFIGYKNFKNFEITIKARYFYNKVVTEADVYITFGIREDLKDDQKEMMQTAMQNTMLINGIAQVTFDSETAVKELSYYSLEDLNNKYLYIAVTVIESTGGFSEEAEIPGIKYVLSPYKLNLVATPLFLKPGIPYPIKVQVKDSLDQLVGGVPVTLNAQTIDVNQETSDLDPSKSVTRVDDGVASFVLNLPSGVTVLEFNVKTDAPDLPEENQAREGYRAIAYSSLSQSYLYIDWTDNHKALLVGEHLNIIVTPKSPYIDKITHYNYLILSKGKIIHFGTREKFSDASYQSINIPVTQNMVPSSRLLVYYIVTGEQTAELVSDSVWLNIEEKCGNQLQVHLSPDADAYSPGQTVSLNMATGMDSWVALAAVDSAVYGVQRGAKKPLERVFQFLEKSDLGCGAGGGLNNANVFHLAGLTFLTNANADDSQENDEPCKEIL
T2 sequence (P01031 678-1676 limits assumed, chain 2 of 2): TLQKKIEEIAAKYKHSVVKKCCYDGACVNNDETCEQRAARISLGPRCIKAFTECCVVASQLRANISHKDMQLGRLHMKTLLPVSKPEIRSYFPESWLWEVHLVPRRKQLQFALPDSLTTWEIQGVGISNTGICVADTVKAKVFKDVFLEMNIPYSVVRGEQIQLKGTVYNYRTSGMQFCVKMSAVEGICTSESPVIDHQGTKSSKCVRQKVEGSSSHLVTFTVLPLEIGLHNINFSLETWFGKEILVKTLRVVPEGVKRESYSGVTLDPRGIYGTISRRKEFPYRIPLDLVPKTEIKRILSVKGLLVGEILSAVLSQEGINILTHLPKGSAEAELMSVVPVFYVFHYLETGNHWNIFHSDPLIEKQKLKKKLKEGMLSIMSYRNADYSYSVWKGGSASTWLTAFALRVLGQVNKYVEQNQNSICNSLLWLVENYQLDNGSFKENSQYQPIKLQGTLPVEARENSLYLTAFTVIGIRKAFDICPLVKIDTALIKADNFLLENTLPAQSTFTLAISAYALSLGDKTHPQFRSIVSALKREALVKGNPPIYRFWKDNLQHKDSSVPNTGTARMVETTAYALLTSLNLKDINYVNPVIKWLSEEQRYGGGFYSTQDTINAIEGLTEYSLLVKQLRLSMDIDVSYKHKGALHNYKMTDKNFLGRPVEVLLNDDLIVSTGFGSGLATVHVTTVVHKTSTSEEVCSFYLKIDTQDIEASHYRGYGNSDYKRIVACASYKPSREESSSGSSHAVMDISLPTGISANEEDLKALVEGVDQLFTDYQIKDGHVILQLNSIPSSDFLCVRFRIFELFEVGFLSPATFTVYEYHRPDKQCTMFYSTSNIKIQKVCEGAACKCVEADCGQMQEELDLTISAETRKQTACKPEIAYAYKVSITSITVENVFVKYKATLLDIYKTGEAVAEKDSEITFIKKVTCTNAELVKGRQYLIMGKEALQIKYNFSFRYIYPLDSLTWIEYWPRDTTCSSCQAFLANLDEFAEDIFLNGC
T4 sequence (P06684 19-674 limits assumed, chain 1 of 2): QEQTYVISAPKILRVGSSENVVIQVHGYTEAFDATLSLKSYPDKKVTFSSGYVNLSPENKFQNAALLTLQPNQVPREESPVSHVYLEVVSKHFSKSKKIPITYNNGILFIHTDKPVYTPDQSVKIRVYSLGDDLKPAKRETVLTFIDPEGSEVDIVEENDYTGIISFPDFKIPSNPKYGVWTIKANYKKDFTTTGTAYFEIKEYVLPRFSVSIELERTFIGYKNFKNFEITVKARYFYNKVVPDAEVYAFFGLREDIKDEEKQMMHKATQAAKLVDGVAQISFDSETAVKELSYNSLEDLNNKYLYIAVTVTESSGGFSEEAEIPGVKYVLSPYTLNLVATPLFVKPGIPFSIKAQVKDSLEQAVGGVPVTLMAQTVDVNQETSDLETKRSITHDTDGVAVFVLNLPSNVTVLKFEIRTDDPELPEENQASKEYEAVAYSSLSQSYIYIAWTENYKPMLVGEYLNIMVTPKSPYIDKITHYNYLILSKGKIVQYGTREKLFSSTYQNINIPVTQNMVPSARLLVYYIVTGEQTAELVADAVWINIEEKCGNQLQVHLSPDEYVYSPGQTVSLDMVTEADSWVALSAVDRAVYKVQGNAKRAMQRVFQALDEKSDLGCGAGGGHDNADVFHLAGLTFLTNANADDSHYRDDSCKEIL
T4 sequence (P06684 679-1680 limits assumed, chain 2 of 2): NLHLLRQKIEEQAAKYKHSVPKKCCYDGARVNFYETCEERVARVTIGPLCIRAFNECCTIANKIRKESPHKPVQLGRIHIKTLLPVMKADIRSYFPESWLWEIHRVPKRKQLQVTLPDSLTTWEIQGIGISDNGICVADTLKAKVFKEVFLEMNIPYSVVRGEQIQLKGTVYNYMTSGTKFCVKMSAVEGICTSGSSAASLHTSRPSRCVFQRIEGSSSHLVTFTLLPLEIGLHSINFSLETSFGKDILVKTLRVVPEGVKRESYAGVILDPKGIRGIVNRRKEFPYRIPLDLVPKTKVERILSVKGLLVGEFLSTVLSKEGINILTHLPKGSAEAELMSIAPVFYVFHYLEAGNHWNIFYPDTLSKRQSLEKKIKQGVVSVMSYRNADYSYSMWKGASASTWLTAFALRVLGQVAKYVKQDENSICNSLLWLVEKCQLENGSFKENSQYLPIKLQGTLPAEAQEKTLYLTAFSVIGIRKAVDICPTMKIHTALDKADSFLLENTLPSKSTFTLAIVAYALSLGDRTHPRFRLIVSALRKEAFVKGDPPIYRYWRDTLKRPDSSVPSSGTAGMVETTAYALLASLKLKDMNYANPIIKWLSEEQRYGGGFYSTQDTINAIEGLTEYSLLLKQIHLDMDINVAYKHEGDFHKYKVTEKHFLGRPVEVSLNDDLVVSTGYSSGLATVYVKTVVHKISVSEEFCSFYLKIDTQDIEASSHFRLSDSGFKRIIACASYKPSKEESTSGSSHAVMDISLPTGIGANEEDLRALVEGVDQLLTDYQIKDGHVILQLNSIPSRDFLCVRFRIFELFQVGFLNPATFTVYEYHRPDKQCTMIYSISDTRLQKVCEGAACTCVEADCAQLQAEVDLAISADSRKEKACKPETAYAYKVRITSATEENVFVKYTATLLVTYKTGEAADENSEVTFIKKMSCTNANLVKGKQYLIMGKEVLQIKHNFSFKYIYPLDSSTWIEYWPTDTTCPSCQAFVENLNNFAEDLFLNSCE

B1: ultralong CDR-H3 of SEQ ID NO: 498 displayed on M13 phage (other)
chain: TTVHQQTHQDQTCPDGYTRTNYYCRRDGCGSWCNGAERQQPCIRGPCCCDLTYRTAYEYHVET
notes: not shown: poly-histidine, c-myc tag, M13 pIII
On to B1, for which, in the experiment with human serum albumin, the binding result was “binds”.

B2: hC3nb1 VHH with C-terminal single-chain Fc tag (VHH, not shown: a dimerising Fc or GST)
VHH: QVQLVETGGGLVQAGGSLRLSCAASGSIFSLNAMGWFRQAPGKEREFVATINRSGGRTYYADSVKGRFTISRDNGKNMVYLQMHSLKPEDTAIYYCAAGTGWSPQTDNEYNYWGQGTQVTVSS
notes: also called hC3Nb1 WT
As for B2, the binding result in experiment [1] was “no binding”. In [2], this molecule displayed a Kd of 0.163 nM. The “classical pathway C5b neoepitope ELISA; IC50 (read off the curve)” value in experiment [3] was around 10 nM. In addition, the “alternative pathway C5b neoepitope ELISA; IC50 (read off the curve)” value in experiment [4] was around 100 nM.
Take GSSGCPPGYKSGVDCSPGSECKWGCYAVDGRRYGGYGADSGVENLYFQ (Recombinant, cut out by TEV protease) [K57 knob domain peptide cleaved from the 645 Fab]: the “Inhibition of classical pathway mediated C5a release, geomean IC50” value in experiment [5] amounted to 4 nM. In experiment [6], the “Inhibition of alternative pathway mediated bacterial lysis, average Emax” value amounted to 122% and the “Inhibition of alternative pathway mediated bacterial lysis, geomean IC50” value amounted to 1020 nM. In addition, the “Inhibition of classical pathway mediated bacterial lysis, geomean IC50” value in experiment [7] is 115 nM. The Kd in experiment [8] was below 40 nM. Further, the binding result with mouse C5 was “no binding”. The binding result with ovalbumin is recorded as “no binding”. For the same molecule, the binding result in experiment [9] is “no binding”. Further, in experiment [10], the “Inhibition of alternative pathway mediated C5a release, average Emax” value is 97.8% and the “Inhibition of alternative pathway mediated C5a release, geomean IC50” value is 26.6 nM. In [11], this molecule registered a Kd of 1.4 nM, a koff of 0.000408 s⁻¹ and a kon of 298000 M⁻¹ s⁻¹. Also, the “AP mediated bacterial killing assay, IC50” value in experiment [12] was determined as 1220 nM. In addition, in experiment [13], the IC50 was 4 nM and 3.2 nM and 3.5 nM and 3.6 nM; the Ki is 1.8 nM.
As to GCPPGYKSGVDCSPGSECKWGCYAVDGRRYGGYGADSGVGS [K57chemFE knob domain peptide], the binding result with rat C5 is “no binding”. Moreover, the “classical pathway complement ELISA (C5b deposition); IC50 (read off the curve)” value in experiment [14] was around 20 nM. Moreover, in experiment [15], the “classical pathway haemolysis assay; IC50 (read off the curve)” value is around 20 nM. Besides, in [16], the affinity, expressed as Kd, was 2.28 nM; the koff was found to be 0.000579 s⁻¹; the kon stood at 260000 M⁻¹ s⁻¹. In [17], the “alternative pathway complement ELISA (C5b deposition); IC50 (read off the curve)” value was around 90 nM.

A word on the Kd: it is the concentration at which binding is half-saturated. Lower therefore signals a tighter complex. The koff is the rate constant with which the complex falls apart. By kon is commonly meant a measure of how fast the partners come together. Low values mean slower complex formation, high ones faster complex formation. One may read the IC50 as the concentration at which inhibition is half-maximal. In general, Ki refers to a measure of affinity in units of concentration, obtained from inhibition or displacement. Read a high Ki as a looser hold on the target.
